Target: T1, human GFRAL (human, UniProt Q6UXV0 19-394)
T1 sequence (looked up): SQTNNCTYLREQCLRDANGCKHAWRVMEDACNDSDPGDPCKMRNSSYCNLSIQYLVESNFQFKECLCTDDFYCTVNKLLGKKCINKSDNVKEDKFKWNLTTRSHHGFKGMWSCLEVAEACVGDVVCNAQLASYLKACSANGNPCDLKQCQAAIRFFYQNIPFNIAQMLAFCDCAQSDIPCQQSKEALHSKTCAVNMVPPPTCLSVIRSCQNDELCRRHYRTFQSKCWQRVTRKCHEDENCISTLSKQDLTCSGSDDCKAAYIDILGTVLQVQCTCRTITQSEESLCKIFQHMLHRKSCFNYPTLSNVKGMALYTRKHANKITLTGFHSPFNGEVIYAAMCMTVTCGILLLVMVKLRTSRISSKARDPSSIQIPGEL
Test: cell-based or functional assay

1% HSA GDF15 activity (EC50, pM); SRE luciferase reporter: 8.2 pM
HSA free GDF15 activity (EC50, pM); SRE luciferase reporter: 10.3 pM
B1: Native GDF15 (SEQ ID NO: 9) (ligand)
chain: ARNGDHCPLGPGRCCRLHTVRASLEDLGWADWVLSPREVQVTMCIGACPSQFRAANMHAQIKTSLHRLKPDTVPAPCCVPASYNPMVLIQKTDTGVSLQTYDDLLAKDCHCI

From patent US20230130599A1 (BEIJING QL BIOPHARMACEUTICAL, published 2023)
